Source: the nanobody polyreactivity screen of Harvey et al. (2022)

Assay: yeast display, Sf9 membrane polyspecificity reagent, FACS + sequencing; frameworks hold sequencing errors
How it was run: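 In a synthetic yeast display library (Saccharomyces cerevisiae BJ5465), nanobody expression was induced with galactose for 36–48 hours. FACS gates were set low and high (top ~1%) using anti-HA fluorescence for expression and streptavidin fluorescence for binding of the Sf9 membrane reagent. Each polyreactivity label is drawn from the gate of origin.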

Row | Sequence | polyreactivity (PSR sort gate)
1 | QVQLVESGGGLVQAGGSLRLSCAHSASNFGIYAMGWYRQAPGKERELVAPITWYGTSTYYADSVKGRFTISRDNSKNSVYLQMNSLKPEDTAVYYCATAYIQVSATFYEYEYWGQGTQVTVSS | low polyreactivity
2 | QVQLVESGGGLVQAGGSLRLSCAHSGSIFGQNAMGWYRHAPGKVRELVAAIRVSGGSTYYADSVKGRFTISRDNAKNTVYLQMNSLKPEDTAGYYCNARYRGYDGPITHGVTSYYWGQGTQVTVSS | low polyreactivity
3 | QVQLVESGGGLVQAGGSLRLSCAPCGIIFTDYAMGWYRQAPGKERELVAAISSGGGSTYYADSVKGRFTISRDNAKNTVYLQMNSLKPEDTAVYYCNARSPYYSYLLHAYRVFDYWGQGTQVNVSS | high polyreactivity
4 | QVQLVESGGGLVQAGGSLRLSCAPSGFIFGHNTMGWYRQAPGKECELVARITSSGGRTYYADSVKGRFTISRDNAKNTVYLQMNSLKPLDSAVYYCAAVSPNTAYDYWGQGTQVTVSS | high polyreactivity
5 | QVQLVESGGGLVQAGGSLRLSCAPSGFTFDFYAMGWYRQEPGKATELFAAINSGGSTNYADSVKGRFTISRDNAKNTVYLQMNSLKPEDTAVYYCNADWFTPAQPWYRYFIRYDYWGQGSQVTVSS | low polyreactivity
6 | QVQLVESGGGLVQAGGSLRLSCAPSGFTFGDYAMGWYRQAPGKERELVAAISWSGSNTYYADSVKGRFTLSRDNAKNTVYLQMNSLKPEDTAVYYCNADYDPEDMDYWGQGTQVTVSS | low polyreactivity
7 | QVQLVESGGGLVQAGGSLRLSCAPSGFTFGYYAMGWYRQAPGKEMELVAAISSSGGSTYYADSVKGRFTISRDNAKKTVYLQMNSLKREVTAVYYCAVVVFSRVYRYFTSDYWGQGTQVTVSS | high polyreactivity
8 | QVQLVESGGGLVQAGGSLRLSCAPSGFTFGYYAMGWYRQAPGKERELVAAITYSGGSTYYADSVKGRFTISRDNAKNTVYLQMNSLKPEDTAVYYCNAYDRRYYYGRWYGEFDYWGLGTQVTVSS | low polyreactivity
9 | QVQLVESGGGLVQAGGSLRLSCAPSGFTFYKNAMGWYRQAPGKERELVAAITSSGGSTYYADSVKGRFTISRDNAKNTVYLQMNSLKPEDTAVYYCAAYPQAYIADYDYWGQGTQVTVSS | low polyreactivity
10 | QVQLVESGGGLVQAGGSLRLSCAPSGFTLSTYAMGWYRQAPGKERELVAAISRSTDRTYYADSVKGRFTISRDNAKNTVYLQMNSLKPEDTAVYYCAAKSVYYLYRFYYWGQGSQVTVSS | high polyreactivity
11 | QVQLVESGGGLVQAGGSLRLSCAPSGIIFYVYAIGWYRQAPGMERELVADITYGDRTNYADSVNGRFTISRDNAKNTVYLQMNSLKPEDTAVYYCAAKRNVLLGYTDQSLYDYWGQGTQVTVSS | low polyreactivity
12 | QVQLVESGGGLVQAGGSLRLSCAPSGITFFYNTMGWYRQAPGKERELVAAISVSGGGTYYADSVKARFTISRDNAKNTVYLQMNSLKPEDTAVYYCNKVQVRQRRYDYWGQGTQVTVSS | low polyreactivity
13 | QVQLVESGGGLVQAGGSLRLSCAPSGLIFGRYAMGWYRQAPGKERELVAAISSSGVRTYYADSVKGRFTISRDNAKNTVYLQMNSLKPEDTAVYYCAAAYWSSREDTVIKRYYWGQGTQVTVSS | high polyreactivity
14 | QVQLVESGGGLVQAGGSLRLSCAPSGLTYLYAMGWYRQAPGKETELVAAISSSGGSTYYADSVKGRFTISRDNAKNTVSLQMNSLNPEDTGVYYCAAYTRGWLGYDYWGQGTQVTVSS | high polyreactivity
15 | QVQLVESGGGLVQAGGSLRLSCAPSGRIFEIYAMGWYRQAPGKESELVAAISWRGVSTYYADSVKGRFTISRDNAKNTVYLQMNSLKPEDTAVYYCNKDVDYFWYVEYDYWGQGTQVTVSS | low polyreactivity
16 | QVQLVESGGGLVQAGGSLRLSCAPSGRIFGGYTMGGYRQAHGKVRELVASINSGGSTAYADSVKGRFTISRDNAKNTVYLQMNSLKPEDTAVYYCNAYLVYSYSPSHYYGFGYWGQGTQVTVSS | high polyreactivity

Row | Sequence | polyreactivity (PSR sort gate)
17 | QVQLVESGGGLVQAGGSLRLSCAPSGRIFPRNAMGWYRQAPGKERELVAAITKSGGSTYYADSVKGRFTISRDNAKNTVYLQMNSLKPEDTAVYYCNAVQYRNYYWGQGTQVTVSS | high polyreactivity
18 | QVQLVESGGGLVQAGGSLRLSCAPSGRIFRKYAMGWYRQAPGKERELVAAINSRGGRTYYADSVKGRFTISRDNAKKTVYLQMNSLKPEDTAVYYCAASVGWGMDYWGQGTQVTVSS | high polyreactivity
19 | QVQLVESGGGLVQAGGSLRLSCAPSGRIFSYNTVMGWYRQAPGKERELVAAITYSSASTYYADSVKGRFTISRDNAKNTVYLQMNSLKPEDTAVYYCAAVRYERGLWSDYWGQGTQVTVSS | high polyreactivity
20 | QVQLVESGGGLVQAGGSLRLSCAPSGRIFYGYAMGWYRQAPGKEREFVARINVSGTSTFYADSVKGRFTISRDNAKNTVYLQMNSLKPEDTAVYYCAARGLPSNYYYYVHGYIMDYWGQGTHVTVSS | low polyreactivity
21 | QVQLVESGGGLVQAGGSLRLSCAPSGRILGYYAMGWYRQAPGKERELVAAISSGDSTNYADSVKGRFTISRDNAKYTVYLQMNSLKPEDTAVYYCAAKGWIWNAYNYWGQGTQVTVSS | low polyreactivity
22 | QVQLVESGGGLVQAGGSLRLSCAPSGRILRGYAMGWYRQAPGKDRELVAAISRRGGSTRYADSVKGRFTISRDNAKNTVYLQMNSLKPEDTAVYYCAPRYHPWCYDYWGQGTQVTVSS | high polyreactivity
23 | QVQLVESGGGLVQAGGSLRLSCAPSGRILWFYAMGWYRQAPGKERELVAAISSSSGRTYYADSVKGRFTISRDNAKNTVYLQMYILKPEDSAVYYCAATHAVARPLEYDYWGQGTHVTVSS | low polyreactivity
24 | QVQLVESGGGLVQAGGSLRLSCAPSGRISGWYAMGWYRQAPGKQRELVASISSSGGSTYYADSVKGRFTISRDNAKNSVYLQMNSLKPEDTAVYYCAVRRYNWSFYRGYDYWGQGTQVTVSS | high polyreactivity
25 | QVQLVESGGGLVQAGGSLRLSCAPSGRTFGYNVMGWYRQAPGKERELVAAISYSGGSTYYADSVKGRFTISRDNAKNTVYLQMNSLKPEDTAVYYCAATVLSWYGDYPVYYWGQGTQVTVSS | low polyreactivity
26 | QVQLVESGGGLVQAGGSLRLSCAPSGRTFGYYGMGWYRQEPGKERELVASINFSSGSTFYADSVKGRFSISRDNAKNTVYLQMNSLKPEDTAVYYCAARAKAVRSYAYNYWGQGTQVTVSS | low polyreactivity
27 | QVQLVESGGGLVQAGGSLRLSCAPSGRTFIFYAMGWSRQAPGKERELVAAISSSGSGTYYADSVKGRFTISRDNAKNTVYLQMNSLIPEDTAVYYCAADVVNSRRRPKYGYWGQGSQVTVSS | low polyreactivity
28 | QVQLVESGGGLVQAGGSLRLSCAPSGRTFYSYAMGWYRHAPGKERELGAAITSSGGSTYYADSVKGRFTISRDNAKNTVYLQMNSLKPEDTAVYDCAAGKPYSSYWSWGYWTNLEDDYWGQGTQVNVSS | high polyreactivity
29 | QVQLVESGGGLVQAGGSLRLSCAPSGRTLYGYAMGWYRQAPGKVSALVASFRSGGSTNYADSVKGRFTISLDNAKNTVYLQMNSLKPEDTAVYYCAADPYYSYGYYHAHGRDDGYWGQCTQVTVSS | low polyreactivity
30 | QVQLVESGGGLVQAGGSLRLSCAPSGSIFKQYAMGWYRQAPGKERELVARITGSGGSTYYTDSVKGRFTISRDNAKNTVYLQMNSLKPEDTAVYYCNAGGRDAGYDYWGQGTQVTVSS | low polyreactivity
31 | QVQLVESGGGLVQAGGSLRLSCAPSGSIFKYNTMGWYRQEPGKERELVATISGGGRTYYADSVKGRFTISRDNAKNTDYLQMNSLKPVDTAVYYCAARKRGNFTYDYWGQGTQVTVSS | high polyreactivity
